Assay results reported in PMC10215423, “The Diagnostic Potential of RNA Aptamers against the NS1 Protein of Dengue Virus Serotype 2”.

Molecular target: NS1 (dengue virus serotype 2) (Dengue virus serotype 2, UniProt P29990 776-1127)
Test: filter binding
Conditions: protein: commercial; chain copies: 2

Sequence of NS1 (dengue virus serotype 2) (P29990 776-1127): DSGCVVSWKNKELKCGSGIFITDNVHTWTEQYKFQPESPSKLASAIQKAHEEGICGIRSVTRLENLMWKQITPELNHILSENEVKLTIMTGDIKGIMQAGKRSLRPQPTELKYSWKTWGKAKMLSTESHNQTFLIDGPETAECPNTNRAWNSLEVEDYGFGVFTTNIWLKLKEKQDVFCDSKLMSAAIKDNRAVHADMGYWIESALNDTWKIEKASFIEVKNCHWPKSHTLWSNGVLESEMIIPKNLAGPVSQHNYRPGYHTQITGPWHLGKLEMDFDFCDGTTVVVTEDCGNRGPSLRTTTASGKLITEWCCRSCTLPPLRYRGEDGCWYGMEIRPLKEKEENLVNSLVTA

B1: DENV-3 (structured_RNA)
RNA: GGAGCUCAGCCUUCACUGCUUUGAUCUCGUGGGGGUGUGUCGCGGGAGACACCAUGGAAUAUAUGGCUGAUUUCAUGUGGGCACCACGGUCGGAUCCAC
Kd: 37.6 ± 10.3 nM

B2: DENV-6 (structured_RNA)
RNA: GGAGCUCAGCCUUCACUGCCGUAGUCGUAUCUCCAUUACCCAGAAUGGUGAUGCGCCGUGAAGAGCGGUUUAGGGAAUUGGCACCACGGUCGGAUCCAC
Kd: 41.4 ± 9.29 nM
